Bridge positions count the residues as written; N and C are the ends. Ends that are not written are not given here.
Legend:
SiHa cells = system: SiHa cells
Method: The 5-FAM labeled peptides were used to monitor the cell uptake and intracellular location of the peptide. SiHa cells were seeded on the coverslips in 12-well plates (1×10^5/well) and cultured overnight. The DMEM was replaced with a fresh medium, supplemented with 80 µM 5-FAM labeled peptide. Cells were washed three times with a PBS buffer after 8 h and 24 h of incubation, respectively, and then observed under a fluorescence microscope Leica DMI 6000B. Images were captured with Leica AF6500 software (Leica Mikrosysteme Vertrieb GmbH, Wetzlar, Germany).

[1] = biological target: T1, His-HPV16E7 fusion protein (human papillomavirus type 16, UniProt P03129 1-98); test: ELISA
T1 construct: source: E. coli BL21, extracted in denaturing conditions, purified (Ni-NTA agarose)
T1 sequence (looked up): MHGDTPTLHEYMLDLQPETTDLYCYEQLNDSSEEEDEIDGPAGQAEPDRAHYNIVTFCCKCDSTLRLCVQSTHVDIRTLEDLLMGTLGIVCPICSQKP

O=C(O)c1ccc2c(c1)C(=O)OC21c2ccc(O)cc2Oc2cc(O)ccc21 [5-Fam]
cell fluorescence (uptake control) (SiHa cells): did not show fluorescence

positive phage clones displaying the peptide PKGLDWC
inhibitory ratio of HPV16E7 mAb binding at 10^13 CFU/ml [1]: > 50%

B1: Pep-7 (peptide)
peptide: SACPKGLDWCGG
modifications: disulfide 3-10 (inferred)
notes: also called selected peptide; antagonist peptide; source: synthetic peptide (Chinese Peptide Company), HPLC purified
binding result ([1]; both partners purified): binds

Source: publication PMC3057995, “Potent Anti-Tumor Effect Generated by a Novel Human Papillomavirus (HPV) Antagonist Peptide Reactivating the pRb/E2F Pathway” (PLoS ONE, 2011)
